# Source: patent US20230405078
# T1: elafin (AS-61641, Anaspec)
# T1 chain: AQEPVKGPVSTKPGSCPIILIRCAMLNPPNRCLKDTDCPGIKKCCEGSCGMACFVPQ
# Biological target: T1, elafin (AS-61641, Anaspec)
protein,measurement,value
"recombinant cathepsin S (1183-CY-010, R&D Systems) (protein) QLHKDPTLDHHWHLWKKTYGKQYKEKNEEAVRRLIWEKNLKFVMLHNLEHSMGMHSYDLGMNHLGDMTSEEVMSLMSSLRVPSQWQRNITYKSNPNRILPDSVDWREKGCVTEVKYQGSCGACWAFSAVGALEAQLKLKTGKLVSLSAQNLVDCSTEKYGNKGCNGGFMTTAFQYIIDNKGIDSDASYPYKAMDQKCQYDSKYRAATCSKYTELPYGREDVLKEAVANKGPVSVGVDARHPSFFLYRSGVYYEPSCTQNVNHGVLVVGYGDLNGKEYWLVKNSWGHNFGEEGYIRMARNKGNHCGIASFPSYPEI",ERK1/2 phosphorylation and ProCOL1A2 expression in colonic fibroblasts,reversed elafin-mediated inhibition of ERK1/2 phosphorylation and ProCOL1A2 expression in colonic fibroblasts
